Numbering of substitutions follows the chain as printed. One block for each binder: values may come before it.
Tests used:
[1] = molecular target: T1, human MerTK endogenously expressed on cells (SK-MEL-5 cells; human macrophages) (human, UniProt Q12866 21-999); assay: flow cytometry on SK-MEL-5 cells, Prism fit
T1 construct: also called MerTK on SK-MEL-5
T1 sequence: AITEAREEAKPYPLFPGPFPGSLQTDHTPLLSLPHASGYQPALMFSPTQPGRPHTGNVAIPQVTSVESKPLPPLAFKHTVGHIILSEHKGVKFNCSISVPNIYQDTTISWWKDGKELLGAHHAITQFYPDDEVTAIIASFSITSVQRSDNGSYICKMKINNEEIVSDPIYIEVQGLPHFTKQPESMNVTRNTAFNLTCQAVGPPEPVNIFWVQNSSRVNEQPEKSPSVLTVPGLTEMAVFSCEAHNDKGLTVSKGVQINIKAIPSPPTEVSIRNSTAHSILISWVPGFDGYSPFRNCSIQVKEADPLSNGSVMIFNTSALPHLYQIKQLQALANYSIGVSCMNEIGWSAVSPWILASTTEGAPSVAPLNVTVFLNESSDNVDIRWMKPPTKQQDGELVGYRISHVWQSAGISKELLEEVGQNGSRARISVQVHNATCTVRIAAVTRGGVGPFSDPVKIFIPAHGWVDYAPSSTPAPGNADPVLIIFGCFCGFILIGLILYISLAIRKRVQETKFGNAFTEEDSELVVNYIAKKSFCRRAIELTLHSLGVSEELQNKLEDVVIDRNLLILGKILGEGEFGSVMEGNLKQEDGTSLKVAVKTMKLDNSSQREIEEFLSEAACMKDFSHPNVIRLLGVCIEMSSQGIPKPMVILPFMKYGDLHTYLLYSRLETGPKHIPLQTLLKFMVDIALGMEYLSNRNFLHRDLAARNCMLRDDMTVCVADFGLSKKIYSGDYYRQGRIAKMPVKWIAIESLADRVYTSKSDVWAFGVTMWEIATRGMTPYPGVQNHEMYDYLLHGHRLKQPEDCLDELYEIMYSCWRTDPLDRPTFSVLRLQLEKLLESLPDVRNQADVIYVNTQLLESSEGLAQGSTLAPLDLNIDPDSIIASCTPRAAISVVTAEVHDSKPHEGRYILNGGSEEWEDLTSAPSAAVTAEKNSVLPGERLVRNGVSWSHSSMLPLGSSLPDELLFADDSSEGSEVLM
Description: To determine whether recombinant anti-human MerTK antibodies of the present disclosure bind to human MerTK endogenously expressed on SK-MEL-5 cells and to CHO cells overexpressing mouse MerTK (CHO-muMerTK OE cells), the following experiments were performed. SK-MEL-5 cells and CHO-muMerTK OE cells were plated at 40,000 cells/well. Anti-MerTK antibodies were titrated to a final concentration range of between 66.6 nM to 4 pM and then added to the cells. After 30 min on ice, cells were washed and then stained with APC-conjugated mouse anti-human Kappa antibody (Southern Biotech Cat #9230-11, Birmingham, Ala.) and a viability die (Life Technologies) in the presence of Fc block solution on ice for 30 minutes, and then washed twice with cold FACS buffer (2% FBS in PBS). Cells were fixed with 4% paraformaldehyde in PBS. Stained cells were acquired on a BD FACS Canto II cytometer and the mean fluorescence intensity (MFI) was calculated with FlowJo software and K value was calculated with Prism software. […] A lower Kd value reflects higher binding of antibody to cells.

[2] = molecular target: T2, Recombinant human MerTK human Fc Chimera protein (R&D systems, Cat #391-MR-100) (human, UniProt Q12866 26-499, limits assumed); assay: competition ELISA, His-ProS on captured MerTK-Fc
T2 construct: Bought; also called recombinant human MerTK protein; MerTK-Fc
T2 sequence: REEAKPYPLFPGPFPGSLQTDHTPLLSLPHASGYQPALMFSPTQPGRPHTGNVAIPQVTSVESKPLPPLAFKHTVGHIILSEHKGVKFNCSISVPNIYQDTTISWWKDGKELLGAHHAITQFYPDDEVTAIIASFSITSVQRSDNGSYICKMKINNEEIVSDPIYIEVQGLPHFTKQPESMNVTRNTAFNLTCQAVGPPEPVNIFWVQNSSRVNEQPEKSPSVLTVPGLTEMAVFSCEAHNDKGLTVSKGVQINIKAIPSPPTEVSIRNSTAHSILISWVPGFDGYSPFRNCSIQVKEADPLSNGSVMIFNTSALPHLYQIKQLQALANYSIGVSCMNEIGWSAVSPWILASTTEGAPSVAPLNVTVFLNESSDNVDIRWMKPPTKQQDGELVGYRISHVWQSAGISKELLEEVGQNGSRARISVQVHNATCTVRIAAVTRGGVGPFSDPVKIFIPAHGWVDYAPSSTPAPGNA
Description: Rabbit anti-human IgG polyclonal antibody (Jackson ImmunoResearch, Cat #309-005-008) was captured to a high-protein binding plate at 2 μg/ml 4° C. overnight. After washing with 0.05% Tween20 in PBS three times, 5% BSA in PBS was added for 1 hour. Recombinant human MerTK human Fc Chimera protein (R&D systems, Cat #391-MR-100) was added at 2 μg/ml for 1 hour and the plates were then washed. Anti-MerTK antibodies were titrated to final concentration range of between 66.6 nM to 4 pM and then 40 μl of serially diluted antibody and 40 μl of His tag-conjugated recombinant Gas6 protein (R&D systems, Cat #885-GSB-050) at 3 μg/ml or His tag-conjugated recombinant ProS protein (R&D systems, Cat #9489-PS-100) at 20 μg/ml. After a further incubation for 1 hour, plates were washed and incubated for 1 hour with HRP-conjugated anti-6×His tag antibody (Abcam, Cat #ab1187). Plates were then washed and an HRP substrate (TMB) was used to develop the plates. After sufficient color change was observed, the reaction was stopped by adding 50 μl 2N H₂SO₄ and the OD was measured using a spectrophotometer (BioTek).
From these experiments, IC50 values [nM] were determined using OD450 values obtained from the dose-response curves analyzed with Prism software. Table 14 and Table 15 show IC50 values determined for anti-MerTK antibody blocking of Gas6 ligand binding and ProS ligand binding to MerTK. […] Dashes indicate lack of significant blocking; “n.a.” indicates data not available.

- Kd [1]: 0.009 nM
- IC50 [2]: 3.36 nM
B1: MTK-12 (antibody, human IgG1, V domains shown)
VH: QVQLQQSGPQLVRPGASVKISCKASGYSFTSHWMHWVKQRPGQGLEWIGMIDPSDGESRLNQKFKDKATLTVDKSSSTAYMQLSSPTFEDSAVYYCARGIYYYGITYAMDYWGQGTSVTVSS
VL: QIVLTQSPAIMSASPGEKVTMTCSASSSVSYMYWYQQKPRSSPRLLIYDTSNLASGVPVRFSGSGSGTSYSLTISRMEAEDAATYYCQQWSSYPLTFGAGTKLELK

- Kd [1]: 0.11 nM
- IC50 [2]: 5.16 nM
B2: MTK-20 (antibody, human IgG1, V domains shown)
VH: QIQLVQSGPELKKPGETVKISCKASGYTFTNYGMTWVKQAPGKGLKWMGWINTYTGEPTYADDFKGRFALSLETSASTAYLQINNLKNEDTATYFCARGGGRLGLRPLDYWGQGTTLTVSS
VL: DIQMTQTTSSLSASLGDRVTISCRASQDINNYLNWYQQKPDGTVKLLIYYTSRLHSGVPSRFSGSGSGTDYSLTISNLEQEDIATYFCQQGNTLPWTFGGGTKLEIK

- Kd [1]: 23.4 nM
- IC50 [2]: 13.5 nM
B3: MTK-21 (antibody, human IgG1, V domains shown)
VH: B2 VH with Y32F, K38R, K43M, G44D, T59K, N84T, L86F
VL: B2 VL with R53S, S76T, K103R

- Kd [1]: 0.38 nM
- IC50 [2]: 4.76 nM
B4: MTK-18 (antibody, human IgG1, V domains shown)
VH: B2 VH with N31H, L70F, R102Q
VL: B2 VL with I21F, D28A, N30S

- Kd [1]: 12.7 nM
- IC50 [2]: 8.35 nM
B5: MTK-17 (antibody, human IgG1, V domains shown)
VH: QIQLVQSGPELKKPGETVKISCKASGYTFTNFGMNWVKQAPGKGLKWMGWINTYTGEPTYADDFKGRFAFSLETSASTAYLQINNLKNEDTATYFCSRGAVLRAGAMDCWGQGTSVTVSS
VL: DIQMTQSSSYLSVSLGGRVTITCKASDHINNWLAWYQQKPGNAPRLLISGATSLETGVPSRFSGSGSGKDYTLSITSLQTEDVATYYCQQYWSTPRTFGGGTKLEIK

- Kd [1]: 0.93 nM
- IC50 [2]: 0.601 nM
B6: MTK-33 (antibody, human IgG1, V domains shown)
VH: QVQLQQPGPELVRPGTSVKLSCKASGYTFTSYWMHWIKQRPGQGLEWIGVIDPSDNYINYNQKFKGKATLTVDTSSSTAYLQLSSLTSEDSAVYYCAREAGTRGYFDYWGQGTTLTVSS
VL: SIVMTQTPKFLLVSAGDRVIITCKASQSVSNTVAWYQQKPGQSPKLLIYYASNRYTGVPDRFTGSGYGTDFTFTISTVQAEDLAVYFCQQDYRSPFTFGSGTQLEMK

- IC50 [2]: 6.51 nM
B7: MTK-05 (antibody, human IgG1, V domains shown)
VH: QVQLQQSGAELVQPGTSVRLSCKTSGYTFTSYWIQWVKQRPGQGLGWIGEIFPGTGTTYYNEKFKGKATLTIDTSSSTAYMQLSSLTSEDSAVYFCARDGAYFDVWGAGTTVTVSS
VL: DIQMTQSPASLSASVGETVTFTCRASENIFSYLAWYQQKQGKSPQLLVYNAKTLAEGVPSRFSGSGSGTHFSLKINSLQPEDFGSYYCLHHYGTPLTFGAGTKLELK

- Kd [1]: 2.64 nM
- IC50 [2]: 3.65 nM
B8: MTK-03 (antibody, human IgG1, V domains shown)
VH: DVQLQESGPGLVKPSQSLSLTCSVTGYSITSGYYWNWIRQFPGNTLEWMGYMSFDGDNKFNPSLKNRISITRDTSKNQFFLRLNSVTTEDTATYYCARGGYNYGSTEANWGQGTLVTVSA
VL: QIVLTQSPAIMSAFPGEKVTITCSASSSVNYMHWFQQKPGTSPKLWIYSTSNLASGVPARFSGSGSGTSYSLTISRMEAEDAATYYCQQRSSYPFTFGSGTKLEIK

- Kd [1]: 3.21 nM
- IC50 [2]: 3.27 nM
B9: MTK-07 (antibody, human IgG1, V domains shown)
VH: B8 VH with A120T
VL: B8 VL with N30T, Y48F

- Kd [1]: 3.54 nM
- IC50 [2]: 24.2 nM
B10: MTK-11 (antibody, human IgG1, V domains shown)
VH: QVQLKQSGPGLVQPSQSLSITCTVSGFSLTDYGVHWVRQSPGKGLEWLGVIWSSGTTDYNEAFISRLSISKDNSKSHVFFKMNSLQAIDTAIYYCARKGHDPYAMDYWGQGTSVTVSS
VL: QIVLTQSPAIMSASLGERVTMTCTASSSISSSYFHWYQQKPGSSPKLWIYSTSNLPSGVPARFSGSGSGTSYSLTISSMEAEDAATYYCHQYYRSPLTFGAGTKLELK

- Kd [1]: 3.07 nM
- IC50 [2]: 11.3 nM
B11: MTK-19 (antibody, human IgG1, V domains shown)
VH: EVQLQQSGPELVKPGASVKISCKTSGYTFTEYTMHWVKQSHGKSLEWLGGFNPNNVITSYNQRFQGRATLTVDKSSSTAYMELRSLTSDDSAVYYCTRGDLLWSLLLPGNYFDYWGQGTTLTVSS
VL: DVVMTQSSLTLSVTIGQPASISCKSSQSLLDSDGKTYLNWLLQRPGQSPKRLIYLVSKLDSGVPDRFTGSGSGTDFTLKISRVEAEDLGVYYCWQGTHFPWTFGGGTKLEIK

- Kd [1]: 0.049 nM
- IC50 [2]: 2.85 nM
B12: MTK-01 (antibody, human IgG1, V domains shown)
VH: QIQLVQSGPELKKPGETVKISCKASGYTFTNYGMNWVKQAPGKGLKCMGWINTYTGEPTYADDFKGRFAFSLETSATTAYLQINNLKNEDTATYFCARRDRYTWFAYWGQGTLVTVSA
VL: QIVLSQSPAILSASPGEKVTMTCRASSSVSYMHWYQQKPGSSPKPWIYATSNLASGVPARFSGSGSGTSYSLTISRVEAEDAATYYCQQWSSNPPTFGGGTKLEIK

- Kd [1]: 0.19 nM
- IC50 [2]: 4.2 nM
B13: MTK-15 (antibody, human IgG1, V domains shown)
VH: QIQLVQSGPELKKPGETVKISCKASGYTFTNYGVHWVKQAPGKGLKWMGWINTYTGEPTYADDFKGRFAFSLETSASTAYLQINNLKNEDMATYFCARGNRYAYMDYWGQGTSVTVSS
VL: B12 VL with P39S, P95R

- Kd [1]: 0.14 nM
- IC50 [2]: 2.66 nM
B14: MTK-29 (antibody, human IgG1, V domains shown)
VH: QIQLVQSGPELKKPGETVKISCKSSGFTFTTYGMSWVKQAPGKGLKWMGWINTYSGVPTYTDDFKGRFAFSLETSASTASLQINNLKNEDTATYFCARYTNYGYFDYWGQGTTLTVSS
VL: B12 VL with S26T, S30G, D81H, S91G, P95F, G99S

- Kd [1]: 0.037 nM
- IC50 [2]: 12.8 nM
B15: MTK-04 (antibody, human IgG1, V domains shown)
VH: B12 VH with T77S, T91M, R98K, R99Y, R101N, T103A
VL: B12 VL with I10F, Q36L, A59V, P95R, K106R

— patent US20210261685A1 (Alector, published 2021)
